# Data from paper PMC12547741, “DUF-721 and N-terminal extension of the helicase loader DciA bind ssDNA to promote replicative DnaB helicase loading in Caulobacter crescentus”.
# How the values were obtained:
# [1] = target: ccDnaB-His (wild type) (Caulobacter crescentus); assay: SEC; ccDnaB-His alone on Superdex 200; 25 mM Tris-HCl pH 7.5, 300 mM NaCl, 20% glycerol, 0.1 mM ATP, 5 mM MgCl2; fractions by SDS-PAGE; hexamer
# ccDnaB-His (wild type) = assay: pull-down (Ni-conjugated magnetic beads), quantified from SDS-14% PAGE with Coomassie staining; details: sfTq2-DciA 850 nM, three independent reactions per legend, parent: est. 1.4, read off a plot
# His-DciA R106A [2] = target: T1, His-DciA R106A (UniProt A0A0H3C5R2 1-179, R106A); assay: EMSA; 50 mM K-glutamate; EMSA: 20 mM Tris-HCl pH 7.5, 10 mM Mg acetate, 50 or 150 mM K-glutamate, 0.1 mg/ml BSA, 10% glycerol, 2 mM ATP, 12.5 nM DNA, 5 min on ice; M13 pull-down: Tris pH 7.5, 10 mM Mg acetate, 50 mM K-glutamate, 0.1 mM ATP, 0.1 mg/ml BSA, 30 C; details: protein: recombinant; tags: N-terminal His6; label: 5'-FAM
# T1 sequence (A0A0H3C5R2 entry or part of it R106A | R106A R106A): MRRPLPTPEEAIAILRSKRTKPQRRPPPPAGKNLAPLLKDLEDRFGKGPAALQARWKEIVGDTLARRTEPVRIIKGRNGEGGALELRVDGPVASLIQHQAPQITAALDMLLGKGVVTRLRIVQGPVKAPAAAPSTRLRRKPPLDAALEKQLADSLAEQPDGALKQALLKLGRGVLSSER
# His-DciA WT [3] = target: T2, His-DciA WT (UniProt A0A0H3C5R2 1-179); assay: as above; details: protein: recombinant; tags: N-terminal His6; label: 5'-FAM
# T2 sequence (A0A0H3C5R2 entry or part of it): as the sequence (A0A0H3C5R2 entry or part of it R106A | R106A R106A) above, with A106R counted along it
# His-DciA R106A [4] = target: T1, His-DciA R106A; assay: EMSA; 150 mM K-glutamate; EMSA: 20 mM Tris-HCl pH 7.5, 10 mM Mg acetate, 50 or 150 mM K-glutamate, 0.1 mg/ml BSA, 10% glycerol, 2 mM ATP, 12.5 nM DNA, 5 min on ice; M13 pull-down: Tris pH 7.5, 10 mM Mg acetate, 50 mM K-glutamate, 0.1 mM ATP, 0.1 mg/ml BSA, 30 C; details: protein: recombinant; tags: N-terminal His6; label: 5'-FAM
# His-DciA 4A = His-DciA 4A (UniProt A0A0H3C5R2 1-179, H98A;Q99A;Q102A;R106A); assay: as above; details: protein: recombinant; tags: N-terminal His6; label: 5'-FAM
# His-DciA 4A, sequence (A0A0H3C5R2 entry or part of it H98A;Q99A;Q102A;R106A): as the sequence (A0A0H3C5R2 entry or part of it R106A | R106A R106A) above, with H98A, Q99A, Q102A counted along it
# His-DciA WT [5] = target: T2, His-DciA WT; assay: as above; details: protein: recombinant; tags: N-terminal His6; label: 5'-FAM
# His-DciA del1-45 = His-DciA del1-45 (UniProt A0A0H3C5R2 46-179, del1-45); assay: as above; details: protein: recombinant; tags: N-terminal His6; label: 5'-FAM
# His-DciA del1-45, sequence (A0A0H3C5R2 entry or part of it del1-45): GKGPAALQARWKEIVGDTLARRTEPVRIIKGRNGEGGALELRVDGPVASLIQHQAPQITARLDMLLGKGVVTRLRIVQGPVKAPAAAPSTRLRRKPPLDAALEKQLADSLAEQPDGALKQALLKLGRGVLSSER
# [6] = target: His-DciA R106A L119S (RL) (UniProt A0A0H3C5R2 1-179, R106A;L119S); assay: as above; details: protein: recombinant; tags: N-terminal His6; label: 5'-FAM
# His-DciA R106A L119S (RL), sequence (A0A0H3C5R2 entry or part of it R106A;L119S | R106A L119S R106A L119S): as the sequence (A0A0H3C5R2 entry or part of it R106A | R106A R106A) above, with L119S counted along it
# His-DciA 4A2S = His-DciA 4A2S (UniProt A0A0H3C5R2 1-179, H98A;Q99A;Q102A;R106A;M109S;L110S); assay: as above; details: protein: recombinant; tags: N-terminal His6; label: 5'-FAM
# His-DciA 4A2S, sequence (A0A0H3C5R2 entry or part of it H98A;Q99A;Q102A;R106A;M109S;L110S): as the sequence (A0A0H3C5R2 entry or part of it R106A | R106A R106A) above, with H98A, Q99A, Q102A, M109S, L110S counted along it
# His-DciA L119S = His-DciA L119S (UniProt A0A0H3C5R2 1-179, L119S); assay: as above; details: protein: recombinant; tags: N-terminal His6; label: 5'-FAM
# His-DciA L119S, sequence (A0A0H3C5R2 entry or part of it L119S | L119S L119S): as the sequence (A0A0H3C5R2 entry or part of it R106A | R106A R106A) above, with A106R, L119S counted along it
stoichiometry N [1],Molecule,response (ccDnaB-His (wild type)) [AU],Kd (His-DciA R106A [2]) [nM],Kd (His-DciA WT [3]) [nM],Kd (His-DciA R106A [4]) [nM],Kd (His-DciA 4A) [nM],Kd (His-DciA WT [5]) [nM],Kd (His-DciA del1-45) [nM],Kd [6] [nM],Kd (His-DciA 4A2S) [nM],Kd (His-DciA L119S) [nM]
6,ccDnaB-His (wild type) (enzyme),,,,,,,,,,
,"superfolder mTurquoise2 fluorescent protein-tagged DciA (sfTq2-DciA), wild type R106A",1.2,,,,,,,,,
,80-mer oligo 1790 (ssDNA) DNA: TCCTTGTTATCCACAGGGCAGTTTTTTTTTTTTTTTTTTTTTTTTTTTTTTTTTTTTTTTTGTGCGATATAGTTCTCCGA,,152 ± 75.4,49.7 ± 24.4,115 ± 40.3,115 ± 40.3,25.4 ± 8.4,115 ± 40.3,115 ± 40.3,115 ± 40.3,115 ± 40.3
,TTTTTTTTTTTTTTTTTTTTTTTTTTTTTTTTTTT (ssDNA) [35-mer oligo 2201],,35.7 ± 17.6,19.6 ± 7.03,543 ± 9.95,,109 ± 21,520 ± 30.6,665 ± 47.9,,
